Blank lines part the entries; values can stand above or below the binder they belong to.
Target: taxol-stabilized microtubules polymerized from tubulin purified from bovine brain (bovine)
Test: co-sedimentation

- stoichiometry N (tubulin heterodimers per emerin): 24
B1: His-tagged recombinant emerin peptide corresponding to aa 73–180 (domain or fragment)
chain: MYDLPKKEDALLYQSKGYNDDYYEESYFTTRTYGEPESAGPSRAVRQSVTSFPDADAFHHQVHDDDLLSSSEEECKDRERPMYGRDSAYQSITHYRPVSASRSSLDLS

- stoichiometry N (tubulin heterodimers per emerin): 8
B2: emerin peptide aa 1–176 (most of the nucleoplasmic domain) (domain or fragment)
chain: MDNYADLSDTELTTLLRRYNIPHGPVVGSTRRLYEKKIFEYETQRRRLSPPSSSAASSYSFSDLNSTRGDADMYDLPKKEDALLYQSKGYNDDYYEESYFTTRTYGEPESAGPSRAVRQSVTSFPDADAFHHQVHDDDLLSSSEEECKDRERPMYGRDSAYQSITHYRPVSASRSS

Source: article PMC2064615
